Test results published in the supplement of paper PMC9170038.

System: K4 kissing-loop RNA reporter
Assay: apparent KD of K4 kissing-loop reporter; higher = weaker reporter binding
Conditions: Eterna round: R107
Experimental: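 RNA-MaP round R107: designed RNA switches with theophylline, tryptophan, arginine or FMN aptamers are transcribed on-chip within common flanks. They are titrated with a labelled K4 kissing-loop RNA reporter in RNA-MaP buffer (100 mM Tris pH 7.5, 80 mM KCl, 4 mM MgCl2), without ligand or with the indicated ligand. Median apparent KD per design.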

[1] = input ligand: theophylline 20 uM
[2] = input ligand: tryptophan 2.4 mM
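Also: bound reporter read as fluorescence of individual clusters on recovered sequencing chips by microscopy, with normalized cluster intensities fitted with a binding model.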

Sequence | apparent KD of K4 kissing-loop reporter (input ligand: FMN 200 uM) | apparent KD of K4 kissing-loop reporter (input ligand: arginine 13.2 mM) | apparent KD of K4 kissing-loop reporter (input ligand: none) | apparent KD of K4 kissing-loop reporter [1] | apparent KD of K4 kissing-loop reporter [2]
GGAAUGCUGUAAGGAUAUCUCGGACGGUUACUCCGUUUCUCGCGUGUAAGAAUCUGAGUGAUGUUUAGAGAAGGUACGCUGGUUA [theeternabot_exclusion_KL_FMN_B_21] | 178 nM | 233 nM | 240 nM | 225 nM | 149 nM
UGUGAUGUGUAGUGUUAUGUUUUGAGGGAUACCAGAGUGUUUUUAUUCCCUUGGCAGCUUGAGUGAUGUUUGAUGUUGUUGUUGU [knnumullin] | 303 nM | 166 nM | 232 nM | 213 nM | 187 nM
UAUCUAUGCUCGGCCGCCACUAGGACCGGGAUCUCUCUAGUGAUGUUAGUCUGAUCGGCCGCCACUAGGACCGGGAGUGUAGAUA [KL-SSTryp-B15 #DoubleAptamer] | 101 nM | 88.7 nM | 91.2 nM | 104 nM | 80.3 nM
UAUCUAUGCUCGGCCGCCACUAGGACCGGGUAGUCUCUAGUGAUGUUAGUCUCUACGGCCGCCACUAGGACCGGGAGUGUAGAUA [KL-SSTryp-B16 #DoubleAptamer] | 286 nM | 235 nM | 224 nM | 225 nM | 82.5 nM
UGAUAGGACAGAAGGAGCGGAAGUGAUGUUUCCAAAAGGAUAAGGUGUCAAAAGACACCCUUCCAGGUAGGUCGCUGUCCUAUCU [ArgBX 13 #Palindromic #SwitchBubble #StaticStem] | 148 nM | 165 nM | 134 nM | 145 nM | 136 nM
GCUAUGGUAGGAAGGAGCGCUUGCUCGGUCAUAAGAGUGAUGUUCGAGACCGAGCAUUUAUAGCAGGUAGGUCGCCUACUAUAGC [Arginine B K4 7] | 310 nM | 194 nM | 200 nM | 256 nM | 250 nM
AAGAGAGCGAGAAGGAGCGAGAAAGCUAGUGCAUAUGCACUAGCAAAGCAGUGAUGUUGCACUCAGGUAGGUCGCUCGCUCUCAA [AK1.2 SS Arginine B] | 384 nM | 292 nM | 350 nM | 395 nM | 291 nM
UGAUUUAACUGAAGGAGCGGCAAUUGAUAAGUAAAUAUAGUGAUGUUAUAUAAGAUAGAGAGCCAGGUAGGUCGCAGAGGUAUGA [ExArgB.L] | 193 nM | 159 nM | 158 nM | 150 nM | 139 nM
UGUCAUUGGUCGGAUACCAGUUGAUGACGAAUACGUCAACUGGAGUGAUGUUCCUAAAACAACCCUUGGCAGCCGACCGAUGACU [MAT - Same State Theophlline B - Mod of Eli - D1] | 937 nM | 641 nM | 852 nM | 666 nM | 761 nM
GGGAGAAGAGCGGCCGCCACUCAGAAAGAAGAAGAAUAUAGUGAUGUUAUAUAGGAAAGGAAGAAGAGGACCGGGCUUAAGAGGG [#18 K4 Tryptophan B Same State] | 144 nM | 132 nM | 149 nM | 177 nM | 171 nM
GGCGUCUAAAAGUGCCUAGAGAGAAAGGAUACCAGCACCCGGCGGUGCCCUUGGCAGCCUAGCCCAGUGAUGUUGGGUCCUCUAA [Lasorian] | 380 nM | 159 nM | 312 nM | 336 nM | 286 nM
AGUACAAUUGCGGCCGCCACUCAACGCAGAUCAAAGAUCUGCAUUCACUCAGUGAUGUUGAGUGAGAGGACCGGGCAUUUGUACA [Omei KL Tryp B SS B v2] | 676 nM | 481 nM | 548 nM | 512 nM | 164 nM
GGAUCCACCAGUGAUGUUGGAGAAAACUCUAAGGAUAUGACGAAAGUCAGAAGGUGGUAGACUGGACAAAGUCCGGUAGGAUCCA [FmnA10 U30+A78] | 682 nM | 201 nM | 617 nM | 216 nM | 250 nM
UUUUUCCCGCAGGAUACCAGCAACCAAACGUCAUGCGAAGUGAUGUUUCGCUUACGGUAGUGCCCUUGGCAGCCUUCGGUAGGGU [thingy] | 196 nM | 161 nM | 183 nM | 119 nM | 161 nM
AAAAUAAGCCAGUGAUGUUGGUAUGCAGAUACCAGCGACGAAAGUCGCCCUUGGCAGCUGUGGACGUACAAAAUAAGUACGUCCU | 253 nM | 109 nM | 329 nM | 331 nM | 179 nM
AACUGUCAAGGACAACAUUACUGAGGUGAUACCAGGUUUGAGAGGAUCCCUUGGCAGCACCAACUUGCAGUGAUGUUGCAAGUAA [BrourdMod 15 - Jieux - Exclusion - Theophylline A] | 243 nM | 211 nM | 240 nM | 254 nM | 243 nM
UGUCUUUUUUUGAUGUUUUUUGUAUAAUGGCAGGAUAUCGUAGAUGCGAGAAGGGCUUUUAUGCGUUAUGAGUGAUGUUUGUAGG [vjjbvmullin] | 329 nM | 260 nM | 297 nM | 332 nM | 225 nM
ACCAUCAAAGAUGGCCAGGACUCCGCUGAUACCAGAGUGGAAACACUCCCUUGGCAGCAGGUGAGUGAUGUUCACAGUCCAUGGA [Omel KL Theo A SS B v4] | 374 nM | 348 nM | 421 nM | 380 nM | 341 nM
GCAACAUUGGCAGGAUAUCCUUCUCAGUGAUGUUGAGGGUUCAGCUAACGAAAGUUAGUUGUACCAGGAGAAGGGCUAAUGUUGC [Omei KL FMN B SS A v7] | 416 nM | 815 nM | 1420 nM | 906 nM | 1440 nM
UACUAUAGUGAUGUUAUAGAUAAACCAGAUACCAGUGUAACAUAACACCCUUGGCAGCUGAUGAGGGAACUAUUGAAAACAAUAG [AstroSTH-A#7newdesignED4.86] | 248 nM | 203 nM | 267 nM | 223 nM | 217 nM
AGUGUUAGGUUAGAUACCAGCCGUCUGUGGAUAAUCCACAGACCGCCAGUGAUGUUGGCAGGCCCUUGGCAGCUAACAGGACAGA [Riedingeus] | 239 nM | 215 nM | 220 nM | 153 nM | 208 nM

Sequence | apparent KD of K4 kissing-loop reporter (input ligand: FMN 200 uM) | apparent KD of K4 kissing-loop reporter (input ligand: arginine 13.2 mM) | apparent KD of K4 kissing-loop reporter (input ligand: none) | apparent KD of K4 kissing-loop reporter [1] | apparent KD of K4 kissing-loop reporter [2]
UGAUAGGACAGAAGGAGCGGGAGUGAUGUUCCCAAAUGGAUAGGUCGACAAAGUCGACCCUCCCAGGUAGGUCGCUGUCCUAUCU [ArgBX 7 #SwitchBubble #StaticStem] | 206 nM | 246 nM | 219 nM | 247 nM | 187 nM
UGAGGGAUCUCGGCCGCCACUCGUGGGAAAUGGGCCUCAGGGAUAUAGUGAUGUUAUGUAAAGAAGAGGACCGGGAGAAGGAAGG [ExTryptoB.Dh] | 230 nM | 229 nM | 320 nM | 386 nM | 203 nM
AUGCGCGCGGCGGCCGCCACUCGCAUGAGAGUGAUGUUCUCGCCGUGCCCGCAAGGGUGCGGUGUGAGGACCGGGCCGGGCUGCG [#2 Same State - Tryptophan B Attempt #19 (HarryS)] | 562 nM | 143 nM | 194 nM | 154 nM | 302 nM
AGUACAAUGGCGGCCGCCACUCAAUGGCAGAUCAAAGAUCUGCAUCACUCAGUGAUGUUGAGUGAGAGGACCGGGCCUUUGUACA [Omei KL Tryp B SS B v7] | 564 nM | 517 nM | 563 nM | 505 nM | 157 nM
GAGAAUCUAAUUGAUACCAGAGUAAGAACCAGUGAUGUUGGAAGAUUCCCUAAUAAAUAACUCCCUUGGCAGCGGAAGAGAAUAG [Totally accidental 2] | 142 nM | 230 nM | 176 nM | 327 nM | 172 nM
GGAUAGGACUGAGGAUAUGGGCUAGGCAAGAAUAACUUGUCUAGCAAAUCCAUGAGGAGUGAUGUUCCAGAAGGCAGUCCUAUCG [FmnBX 1 U10+A76] | 732 nM | 135 nM | 170 nM | 167 nM | 113 nM
AAGCAGUCACUCGAACCCAUCGAAGAUGGGCGAGGACCGGUACGGCCGCCACUCGGAGUGAUGUUCCGAAGACUGCAAAAUAAAA | 329 nM | 367 nM | 293 nM | 341 nM | 555 nM
UUCAGACUACUACUAUUUAGUAGUAUAUACUAGGAUAUCCAGAUAUGGAGAAGGAGUGAUGUUCCUUAGUAGUAGUGAAUUAAAU [KL-XFMN-A6] | 145 nM | 138 nM | 128 nM | 144 nM | 114 nM
GUGUCCUAGUCGGCCGCCACUGGGUGCAAAAUAGAAGGAGCAUUGCACAUCAGUGAUGUUGAUGUCAGGACCGGGACUAGGGUGU [KL-SSTryp-B5 Brourdwalk1] | 652 nM | 406 nM | 597 nM | 563 nM | 439 nM
UGCAGUGAUGUUGCUAUUUUUCUUGAUUAACGAGGACCGGUACGGCCGCCACUCGAUUUCUCUCUAAUCCAGUAUGUUGUUUGAU [whbob_EX_Tryp_A_t4] | 97.9 nM | 139 nM | 112 nM | 142 nM | 81.1 nM
CAGCGGAGUGAUGUUCUGCUUACUGCGGAUACCAGCUUCGCCAGAGGCCCUUGGCAGCCGGGCGGCUCAGUGAUGUUGGGUUGCU [Same State Theophylline A GF 15] | 536 nM | 559 nM | 876 nM | 920 nM | 664 nM
CGCGCGCGCGCGCGCGCGCGCGCGCGAAGUGAGGAUAUUUAGGGAGAAAGAAGGCACUAUAAAAUAUAGUGAUGUUAUAUAAGGG [SSFMNA.B] | 920 nM | 499 nM | 720 nM | 203 nM | 496 nM
UCGCCCGAUGGAGAUACCAGCAGUUGUGCAGUGAUGUUGCACAAGUACUCGCUCCAUUGCUGCCCUUGGCAGCUCCCGGCAAACA [Enraed] | 93.3 nM | 85 nM | 87.6 nM | 82.8 nM | 89.3 nM
CUUAAGAUAUGAGUGAUGUUCAUGUCCGAAGGAGCGUGCGAAAGCACAGGUAGGUCGCGGAUGUGAGUGAUGUUCAUGUAAGCGA [KL-XArg-A12 #analogue] | 172 nM | 105 nM | 119 nM | 135 nM | 153 nM
UGUACCGAGUCAGGAUAUGGCGUCGAAAGACGAAUGCUAGUGAUGUUAGGGAUCUGCGAAAGCAGUUCAGAAGGGACUUGGUACU [FmnBS 26 G36+U67] | 275 nM | 292 nM | 404 nM | 379 nM | 338 nM
AUUUUGGUUGAGAGUGAUGUUCCUUGUGUUCGAGGACCGGUACGGCCGCCACUCGGGUAGAAAAUAAAAGAAAUGUUUGAUUUUU [BDazzled - #11 SS Tryptophan A] | 242 nM | 86.1 nM | 157 nM | 143 nM | 215 nM
AGAAACUUGUAUACAGGGCAUGCCAGAGAUACCAGUCAAAUGGAAGGCCCUUGGCAGCUCAGGCGAGUGAUGUUCGCAGGCUGAC [Exclusion Theophylline A GF 20] | 132 nM | 113 nM | 142 nM | 145 nM | 105 nM
UGACUGGACUGAAGGAGCGCGCGAGACAAAGUCUCGAACUGCUAGUGAUGUUAGCGAAUAACGCAGGUAGGUCGCAGUCUAGUCU [ArgBS 14 #SwitchBubble #StaticStem] | 177 nM | 146 nM | 175 nM | 155 nM | 156 nM
AAUAUGAAGCAGUGAUGUUGCUUAUGAGAAGGAGCGCACGAAAGUGCAGGUAGGUCGCUCAGCCAAGUGGACGAAAACGUCCACA [whbob_SS_Arginine_A_sa107] | 98.3 nM | 99.9 nM | 86.6 nM | 87.2 nM | 91 nM
GGGCAUCAGGCUGAUACCAGUGAUAAAGGAUAAGAGACAGGGAGUGAUGUUCCCUUUACCCACCCUUGGCAGCAGUUUAAGUUUG [Exclusion Theophylline B GF 16] | 92.8 nM | 94.9 nM | 111 nM | 94.3 nM | 87.1 nM
UGUGUUGUUUUGAUGUUUGGUGUUUGUUGGCAGGAUAUCGUAGAGGCGAGAAGGGCUUGGGAGCGGUAUGAGUGAUGUUUGUAGG [deedwrmullin] | 373 nM | 186 nM | 364 nM | 302 nM | 245 nM
